In US20120076797A1, “Modulation of kit signaling and hematopoietic cell development by IL-4 receptor modulation” (priority 2010, published 2012):
“Also recorded” adds a separate entry of the source. One block for each molecule: values may come before it.

Columns and labels:
Type in all cases: cell-based
[1] = tested on: IL-4R (IL-4Rα and γc subunits); assay: KL stimulation of M07e cells; immunoprecipitation of IL-4R subunits and phosphotyrosine immunoblotting; conditions: growth factor- and serum-deprived 12 hours, 250 ng/ml recombinant human KL, no IL-4
Method: (§1) Cell culture. M07e cells (DSMZ, Braunschweig, Germany) were cultured in RPMI-1640 (Invitrogen/Gibco, Carlsbad, Calif.) with 10% fetal calf serum (FCS; Omega Scientific, Tarzana, Calif.) in the presence of human IL-3 (20 ng/ml; Biosource, Camarillo, Calif.) and human IL-4 (20 ng/ml; R&D Systems Inc, Minneapolis, Minn.). For stimulation of Kit with Kit ligand (KL), M07e cells were growth factor—as well as serum-deprived for 12 hours prior to stimulation with 250 ng/ml of recombinant human KL (Biosource, Camarillo, Calif.).
(§2) Immunoprecipitation and immunoblotting. Immunoprecipitation and immunoblotting were performed as reported previously (Mani, M. et al. Blood 114, 2900-2908 (2009)). Following stimulation with KL, cells were collected in ice-cold PBS containing 1 mM sodium ortho-vanadate (Sigma, St. Louis, Mo.), resuspended at a density of 1×10^7-2×10^7 cells/ml in lysis buffer containing 10 mM Tris-HCl (pH7.4), 150 mM NaCl, 20 mM sodium phosphate (pH7.4), 10 mM sodium pyrophosphate (pH7.4), 5 mM EDTA, 1 mM sodium ortho-vanadate, 1 mM glycerophosphate (Sigma) and 1% Triton X-100, and lysed. Protease inhibitors (Complete Protease Inhibitor Cocktail, Roche, Indianapolis, Ind.) were added according to manufacturer's recommendations. Post-nuclear supernatants were subjected to one round of pre-clearing with Protein A Sepharose (Amersham/Pharmacia, Piscataway, N.J.). […]

Kit = target: T1, Kit (Homo sapiens, UniProt P10721); assay: KL stimulation of M07e cells; phosphorylation of Kit; conditions: 250 ng/ml recombinant human KL
T1 construct: M07e cells are known to express both Kit and IL-4R; host or cells: M07e (human megakaryoblastic cell line)
T1 sequence (P10721 26-976): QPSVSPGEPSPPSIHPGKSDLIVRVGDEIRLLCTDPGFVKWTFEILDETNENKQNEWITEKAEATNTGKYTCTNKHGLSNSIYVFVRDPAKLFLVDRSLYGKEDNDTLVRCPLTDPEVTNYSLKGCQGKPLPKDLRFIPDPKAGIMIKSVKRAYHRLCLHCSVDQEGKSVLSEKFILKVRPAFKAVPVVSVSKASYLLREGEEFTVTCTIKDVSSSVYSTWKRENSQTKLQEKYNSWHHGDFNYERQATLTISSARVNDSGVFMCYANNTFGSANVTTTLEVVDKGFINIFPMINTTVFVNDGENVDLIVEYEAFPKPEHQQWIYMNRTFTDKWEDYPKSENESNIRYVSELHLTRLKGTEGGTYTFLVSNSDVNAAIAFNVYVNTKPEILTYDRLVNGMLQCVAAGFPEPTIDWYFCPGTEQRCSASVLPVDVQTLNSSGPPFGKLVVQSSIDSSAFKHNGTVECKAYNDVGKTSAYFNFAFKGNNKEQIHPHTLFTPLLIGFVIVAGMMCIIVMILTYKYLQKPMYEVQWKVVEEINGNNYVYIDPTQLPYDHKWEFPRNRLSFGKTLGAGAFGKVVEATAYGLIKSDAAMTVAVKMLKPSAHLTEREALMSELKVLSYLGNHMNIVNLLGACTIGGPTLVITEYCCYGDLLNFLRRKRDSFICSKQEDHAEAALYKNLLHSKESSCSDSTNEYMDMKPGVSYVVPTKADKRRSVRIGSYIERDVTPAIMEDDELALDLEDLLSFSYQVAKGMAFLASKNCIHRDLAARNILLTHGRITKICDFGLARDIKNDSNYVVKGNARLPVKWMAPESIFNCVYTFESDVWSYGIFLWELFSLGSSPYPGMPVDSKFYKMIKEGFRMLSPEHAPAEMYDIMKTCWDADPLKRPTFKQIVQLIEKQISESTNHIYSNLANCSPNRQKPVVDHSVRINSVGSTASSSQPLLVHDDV
Method: as §1, §2

[2] = tested on: murine HSC (Lin-Sca-1+Kit+); IL-4R/STAT6; assay: Intracellular phospho-STAT6 analysis (Phospho-Flow) of murine HSC after IL-4 stimulation; conditions: murine bone marrow Lin-Sca-1+Kit+ HSC, 1 ng/ml recombinant mouse IL-4, 15 min
From the text: Intracellular phospho-STAT6 analysis. Cells derived from c-Kit(BAC)-EGFP mice that are transgenic for a bacterial artificial chromosome expressing EGFP under the control of the Kit promoter were used instead of anti-Kit antibodies (Tallini, Y. N. et al. Proc Natl Acad Sci USA 106, 1808-1813 (2009)). Freshly isolated murine bone marrow mononuclear cells were suspended in cold RPMI-1640 containing 10% FBS and stained with PE-CY7 conjugated anti-mouse Sca-1 (BD Biosciences, San Jose, Calif., Cat 558162) and PE conjugated anti-mouse lineage cocktail (Biolegend, San Diego, Calif. Cat: 78035) at 4° C. for 60 min. The cells were washed with cold RPMI-1640 containing 10% FBS and resuspended in pre-warmed RPMI-1640 containing 10% FBS at concentration of 5-10 million cells/ml. Cells were transferred as 0.5 ml aliquots into flow cytometry test tubes (BD Biosciences, Falcon 2052), rested at 37° C. for 1 hr and stimulated with 1 ng/ml of recombinant mouse IL-4 (Invitrogen, Cat: PMC 0045) for 15 min. Cells were fixed by adding 25 μl of 32% paraformaldehyde (EM grade, Electron Microscopy Sciences, Hatfield, Pa., Cat: 15714) at room temperature for 10 min. […] Samples were washed (centrifugation at 1800 rpm for 5 min) once with staining buffer and analyzed on an FACS Aria II (BD Biosciences). The results were analyzed using Flow Jo software.

phosphorylation of Kit after KL stimulation (Kit): rapid phosphorylation of Kit
Molecule: KL: recombinant human Kit ligand (Biosource), ligand of the Kit receptor, used to stimulate M07e cells
time to tyrosine phosphorylation of IL-4Rα and γc subunits of IL-4R after KL treatment [1]: ≤ 5 min

B1: IL-4: recombinant mouse interleukin 4 (Invitrogen), cognate ligand of IL-4R, used to stimulate murine HSC (protein)
chain: HIHGCDKNHLREIIGILNEVTGEGTPCTEMDVPNVLTATKNTTESELVCRASKVLRIFYLKHGKTPCLKKNSSVLMELQRLFRAFRCLDSSISCTMNESKSTSLKDFLESLKSIMQMDYS
STAT6 phosphorylation in response to IL-4 stimulation [2]: STAT6 phosphorylation was observed; also recorded: STATE phosphorylation
